According to the supplement of paper PMC5998384:

How the values were obtained:
HeLa Kyoto [1] = experiment: solubility in G1/S (NP-40 vs SDS abundance) (log2 ratio); higher = more soluble; settings: cell cycle stage: G1/S
HeLa Kyoto [2] = experiment: thermal stability score vs G1/S (z-score of summed log2 fold changes over temperatures); higher = more thermally stable than in G1/S
HeLa Kyoto [3] = experiment: melting temperature (median over replicates), in situ; higher = more thermally stable
HeLa Kyoto [4] = experiment: solubility change mitosis vs G1/S (difference of NP-40 vs SDS log2 ratios) (log2 ratio difference); higher = more soluble in mitosis
[5] = cell cycle stage: early G1 (4.5 h after nocodazole release)
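For melting temperature (median over replicates), in situ in this document: HeLa Kyoto cells synchronized by double thymidine or nocodazole block, proteins quantified by TMT10plex mass spectrometry, three independent biological replicates.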
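For solubility change mitosis vs G1/S (difference of NP-40 vs SDS log2 ratios) in this document: synchronized HeLa Kyoto cells (double thymidine block for G1/S, nocodazole release for mitosis), protein amounts in NP-40 versus SDS lysates quantified by mass spectrometry, three biological replicates.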
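For solubility in G1/S (NP-40 vs SDS abundance) in this document: HeLa Kyoto cells arrested at G1/S by double thymidine block, proteins quantified by TMT10plex mass spectrometry in mild NP-40 versus SDS extracts, three biological replicates.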
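For thermal stability score vs G1/S (z-score of summed log2 fold changes over temperatures) in this document: synchronized HeLa Kyoto cells, proteins quantified by TMT10plex mass spectrometry, three biological replicates, mitosis taken 0.5 h after nocodazole release, G1/S directly after double thymidine block.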

Sequence of COPE (chain, as listed by the source): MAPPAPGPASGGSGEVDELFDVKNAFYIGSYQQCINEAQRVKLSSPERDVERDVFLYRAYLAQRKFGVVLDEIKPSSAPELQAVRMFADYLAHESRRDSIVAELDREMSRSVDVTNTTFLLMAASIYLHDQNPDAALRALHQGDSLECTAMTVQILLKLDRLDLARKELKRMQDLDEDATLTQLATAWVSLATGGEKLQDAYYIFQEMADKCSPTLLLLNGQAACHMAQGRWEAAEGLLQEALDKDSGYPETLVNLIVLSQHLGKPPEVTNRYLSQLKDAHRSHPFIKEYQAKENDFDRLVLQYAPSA
Sequence of CYCS (chain, as listed by the source): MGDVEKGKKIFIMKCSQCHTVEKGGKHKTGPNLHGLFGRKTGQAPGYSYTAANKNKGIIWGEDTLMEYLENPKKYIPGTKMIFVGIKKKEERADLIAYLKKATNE
Sequence of HDGFRP2 (chain, as listed by the source): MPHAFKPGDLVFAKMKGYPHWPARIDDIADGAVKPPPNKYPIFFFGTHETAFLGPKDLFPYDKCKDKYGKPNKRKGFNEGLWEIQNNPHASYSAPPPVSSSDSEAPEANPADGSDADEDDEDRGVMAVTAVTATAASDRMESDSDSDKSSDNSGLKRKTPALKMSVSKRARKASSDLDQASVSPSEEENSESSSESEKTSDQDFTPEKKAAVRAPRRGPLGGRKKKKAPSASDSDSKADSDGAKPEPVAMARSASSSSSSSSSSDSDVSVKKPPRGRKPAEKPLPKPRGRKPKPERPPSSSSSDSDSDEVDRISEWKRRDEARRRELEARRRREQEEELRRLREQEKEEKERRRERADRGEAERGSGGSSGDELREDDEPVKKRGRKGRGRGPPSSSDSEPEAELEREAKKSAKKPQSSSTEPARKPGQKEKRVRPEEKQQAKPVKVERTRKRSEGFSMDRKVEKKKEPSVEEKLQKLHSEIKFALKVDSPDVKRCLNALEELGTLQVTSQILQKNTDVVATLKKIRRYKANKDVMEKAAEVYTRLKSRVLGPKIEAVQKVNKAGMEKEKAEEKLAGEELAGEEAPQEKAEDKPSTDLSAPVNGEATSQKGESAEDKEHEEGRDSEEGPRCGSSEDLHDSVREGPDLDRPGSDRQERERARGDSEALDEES
Sequence of CDK16 (chain, as listed by the source): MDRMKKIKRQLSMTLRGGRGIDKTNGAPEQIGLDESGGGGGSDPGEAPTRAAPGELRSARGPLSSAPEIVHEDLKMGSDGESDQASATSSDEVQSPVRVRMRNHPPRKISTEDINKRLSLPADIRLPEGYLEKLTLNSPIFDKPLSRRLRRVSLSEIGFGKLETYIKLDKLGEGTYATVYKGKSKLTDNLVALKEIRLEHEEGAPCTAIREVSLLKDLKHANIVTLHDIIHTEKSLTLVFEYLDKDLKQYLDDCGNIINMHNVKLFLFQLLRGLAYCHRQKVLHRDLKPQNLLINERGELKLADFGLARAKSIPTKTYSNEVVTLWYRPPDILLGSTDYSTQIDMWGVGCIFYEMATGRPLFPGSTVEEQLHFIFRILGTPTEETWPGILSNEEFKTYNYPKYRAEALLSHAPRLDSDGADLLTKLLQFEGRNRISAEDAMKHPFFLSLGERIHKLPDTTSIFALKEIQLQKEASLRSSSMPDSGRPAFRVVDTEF
Sequence of DBNL (chain, as listed by the source): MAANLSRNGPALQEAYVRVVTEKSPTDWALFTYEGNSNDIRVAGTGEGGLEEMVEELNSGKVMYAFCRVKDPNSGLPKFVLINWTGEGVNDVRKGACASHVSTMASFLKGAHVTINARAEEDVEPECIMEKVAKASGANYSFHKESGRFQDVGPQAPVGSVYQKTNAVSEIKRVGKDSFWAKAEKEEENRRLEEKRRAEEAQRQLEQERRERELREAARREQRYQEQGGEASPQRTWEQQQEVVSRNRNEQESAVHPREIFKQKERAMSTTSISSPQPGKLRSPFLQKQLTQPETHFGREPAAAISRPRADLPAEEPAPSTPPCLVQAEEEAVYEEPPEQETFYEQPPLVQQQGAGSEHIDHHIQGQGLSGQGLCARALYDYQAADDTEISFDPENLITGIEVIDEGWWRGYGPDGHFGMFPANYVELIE
Sequence of KCTD3 (chain, as listed by the source): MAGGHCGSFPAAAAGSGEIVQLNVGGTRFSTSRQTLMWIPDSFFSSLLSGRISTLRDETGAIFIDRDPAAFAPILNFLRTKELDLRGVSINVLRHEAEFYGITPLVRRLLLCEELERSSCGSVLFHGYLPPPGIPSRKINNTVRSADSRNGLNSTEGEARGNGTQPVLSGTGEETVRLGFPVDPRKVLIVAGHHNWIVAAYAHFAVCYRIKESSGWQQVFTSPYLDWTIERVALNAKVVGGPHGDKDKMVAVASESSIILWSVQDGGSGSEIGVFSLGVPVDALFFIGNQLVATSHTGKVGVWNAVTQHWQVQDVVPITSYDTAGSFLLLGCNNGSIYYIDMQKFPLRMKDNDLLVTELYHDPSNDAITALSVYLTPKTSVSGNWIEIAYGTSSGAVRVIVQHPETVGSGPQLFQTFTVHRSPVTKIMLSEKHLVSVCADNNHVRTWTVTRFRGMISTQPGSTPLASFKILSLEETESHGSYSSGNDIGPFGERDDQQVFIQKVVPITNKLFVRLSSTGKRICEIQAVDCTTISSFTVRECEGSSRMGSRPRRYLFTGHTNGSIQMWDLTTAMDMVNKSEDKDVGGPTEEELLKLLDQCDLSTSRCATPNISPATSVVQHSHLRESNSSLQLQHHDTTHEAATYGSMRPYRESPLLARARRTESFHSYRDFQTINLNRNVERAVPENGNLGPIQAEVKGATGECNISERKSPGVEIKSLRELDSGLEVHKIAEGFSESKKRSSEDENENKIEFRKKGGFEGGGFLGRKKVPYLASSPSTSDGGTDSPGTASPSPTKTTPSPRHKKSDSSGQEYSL
Sequence of HNRNPU (chain, as listed by the source): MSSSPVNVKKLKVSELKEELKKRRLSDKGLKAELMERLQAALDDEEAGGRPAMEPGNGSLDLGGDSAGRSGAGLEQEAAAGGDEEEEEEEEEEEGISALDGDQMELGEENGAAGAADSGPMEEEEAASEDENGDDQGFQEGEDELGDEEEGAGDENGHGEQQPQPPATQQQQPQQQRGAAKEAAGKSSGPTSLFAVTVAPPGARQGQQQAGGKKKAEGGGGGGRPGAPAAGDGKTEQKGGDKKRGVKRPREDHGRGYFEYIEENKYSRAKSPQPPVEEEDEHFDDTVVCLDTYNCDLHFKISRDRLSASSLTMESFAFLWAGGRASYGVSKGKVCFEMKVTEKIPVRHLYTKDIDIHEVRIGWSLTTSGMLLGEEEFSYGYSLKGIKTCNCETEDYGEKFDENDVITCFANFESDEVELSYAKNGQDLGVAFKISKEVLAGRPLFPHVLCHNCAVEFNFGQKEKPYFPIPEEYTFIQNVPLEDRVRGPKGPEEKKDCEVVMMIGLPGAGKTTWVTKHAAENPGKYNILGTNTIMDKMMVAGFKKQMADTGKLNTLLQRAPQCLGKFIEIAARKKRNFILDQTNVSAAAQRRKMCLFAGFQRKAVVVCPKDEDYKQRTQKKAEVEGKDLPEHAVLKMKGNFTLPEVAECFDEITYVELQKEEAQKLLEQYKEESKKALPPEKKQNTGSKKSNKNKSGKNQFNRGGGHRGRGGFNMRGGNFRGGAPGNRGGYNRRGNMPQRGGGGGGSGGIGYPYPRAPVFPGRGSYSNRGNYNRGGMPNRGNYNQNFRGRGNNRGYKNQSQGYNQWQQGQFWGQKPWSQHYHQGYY
Sequence of HSPA5 (chain, as listed by the source): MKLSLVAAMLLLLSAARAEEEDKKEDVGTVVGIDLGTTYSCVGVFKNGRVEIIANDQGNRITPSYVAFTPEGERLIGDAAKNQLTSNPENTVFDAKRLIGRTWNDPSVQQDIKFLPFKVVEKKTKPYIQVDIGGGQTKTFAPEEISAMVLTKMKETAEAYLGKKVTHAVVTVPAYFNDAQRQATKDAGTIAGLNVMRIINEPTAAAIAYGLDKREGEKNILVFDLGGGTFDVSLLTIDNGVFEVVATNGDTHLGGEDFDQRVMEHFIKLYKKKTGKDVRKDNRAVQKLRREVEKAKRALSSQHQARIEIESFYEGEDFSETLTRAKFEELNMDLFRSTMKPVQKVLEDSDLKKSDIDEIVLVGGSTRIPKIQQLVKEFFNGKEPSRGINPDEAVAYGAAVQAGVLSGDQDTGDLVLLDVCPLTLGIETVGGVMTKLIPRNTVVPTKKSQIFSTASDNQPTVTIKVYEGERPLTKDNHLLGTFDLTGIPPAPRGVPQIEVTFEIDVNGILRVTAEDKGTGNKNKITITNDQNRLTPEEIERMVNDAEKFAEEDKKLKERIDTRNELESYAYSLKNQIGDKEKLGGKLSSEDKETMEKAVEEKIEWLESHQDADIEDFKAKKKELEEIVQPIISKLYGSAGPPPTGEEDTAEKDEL

Substance | solubility in G1/S (log2) (HeLa Kyoto [1]) | thermal stability score (HeLa Kyoto [2]; [5]) | thermal stability score (HeLa Kyoto [2]; cell cycle stage: mitosis) | melting temperature (HeLa Kyoto [3]; cell cycle stage: G1/S) [°C] | melting temperature (HeLa Kyoto [3]; cell cycle stage: mitosis) [°C] | solubility change mitosis (log2) (HeLa Kyoto [4])
ATP13A1 | -0.281 | -0.031 | -0.441 | 53.1 | 52.9 | -0.00617
BIRC6 | -0.141 | -0.354 | -0.341 | 51.6 | 51.2 | -0.125
CAD | -0.137 | -0.499 | 0.0146 | 50.6 | 50 | -0.146
CARKD | 0.243 | -0.234 | -1.33 | 54.8 | 56.1 | -0.211
CASC5 | -0.247 | 1.3 | 1.4 | 47.7 | 48.3 | -0.0741
CDC42 | 0.629 | -1.73 | 1.82 | 60.1 | 59.8 | -0.0727
CDC42BPA | -0.143 | -0.472 | 0.207 | 49.8 | 50.3 | -0.0814
CDK16 | 0.548 | -0.616 | 0.901 | 50.7 | 53.1 | -0.105
CELSR2 | 0.141 | -4.5 | -5.14 | 56.8 | 54.6 | -0.142
CEP170 | -0.112 | 0.653 | 2.64 | 50.3 | 51.5 | 0.0625
CIT | -0.0433 | 0.287 | 0.352 | 50.1 | 50.4 | -0.113
CLASP1 | -0.0269 | -0.916 | 0.139 | 48.8 | 49.2 | -0.0633
CLTCL1 | -0.305 | 0.282 | 0.64 | 50.8 | 49.8 | -0.0594
COL5A1 | -0.2 | -0.461 | 1.15 | 55.6 | 55.3 | 0.0059
COPE | 0.212 | -0.526 | -0.936 | 50.3 | 50.9 | 0.0106
CSPG4 | 0.0261 | -3.28 | 0.175 | 54.8 | 55 | 0.0955
CTSC | 0.136 | 5.96 | 4.92 | 56.8 | 59 | -0.0557
CTSZ | 0.192 | -1.5 | -2.8 | 56.1 | 55 | -0.0457
CYCS | -0.131 | -1.79 | -2.79 | 57.1 | 52.2 | 0.139
DBNL | 0.177 | -0.295 | -0.854 | 49.5 | 50.5 | -0.0864
DICER1 | -0.101 | -0.0197 | 0.111 | 50.7 | 50.1 | -0.07

Substance | solubility in G1/S (log2) (HeLa Kyoto [1]) | thermal stability score (HeLa Kyoto [2]; [5]) | thermal stability score (HeLa Kyoto [2]; cell cycle stage: mitosis) | melting temperature (HeLa Kyoto [3]; cell cycle stage: G1/S) [°C] | melting temperature (HeLa Kyoto [3]; cell cycle stage: mitosis) [°C] | solubility change mitosis (log2) (HeLa Kyoto [4])
DIP2A | -0.104 | 0.00154 | 0.398 | 51.3 |  | -0.0755
DIP2B | -0.125 | -1.32 | -2.08 | 53.4 | 53.1 | -0.12
DMXL1 | -0.236 | 0.592 | 1.02 | 51.4 | 50.9 | -0.0423
DNAJA2 | 0.258 | -0.554 | -2.34 | 51.7 | 51.7 | -0.191
DNAJB6 | -0.0238 | 0.898 | 1.65 | 52.8 | 49.8 | 0.0684
DNAJC13 | -0.463 | -0.329 | -1.08 | 50.8 | 50.3 | -0.026
DOCK7 | -0.219 | 0.562 | 1.42 | 48.2 | 49 | -0.188
DYNC1H1 | -0.318 | 0.0561 | 2.96 | 51.8 | 51.2 | -0.141
EED | -0.587 | 1.42 | 1.21 | 49.7 | 50.2 | 0.102
EHBP1 | 0.0745 | 0.393 | 0.935 | 50.3 | 52.4 | -0.0155
EHBP1L1 | -0.0555 | -1.13 | 2.05 | 49.7 | 49.1 | -0.0696
ERP29 | 0.456 | 2.19 | -0.433 | 54.6 | 55.7 | 0.169
FAM136A | 0.101 | -3.91 | -5.74 | 52.9 | 53.3 | 0.0886
FAM208A | -0.847 | 0.605 | 0.529 | 49.7 | 50.2 | 0.524
FNDC3B | -0.0341 | 1.73 | 3.59 | 47.9 | 50.5 | 0.0529
GAPDH | 0.191 | -2.02 | -3.87 | 59.5 | 60.3 | -0.0817
GCC2 | 0.461 | 0.337 | 1.48 | 48.9 | 49.4 | -0.00143
GLUD1 | 0.197 | 2.33 | -0.967 | 57.5 | 57.2 | -0.0663
GNL2 | -2.3 | 4.89 | 6.37 | 51.2 | 52.7 | 1.08
GTF3C1 | -0.378 | 1.22 | 3.47 | 47.5 | 49.4 | -0.00776
HDGFRP2 | -0.376 | -0.27 | -1.13 | 54.3 | 53.9 | 0.275

Substance | solubility in G1/S (log2) (HeLa Kyoto [1]) | thermal stability score (HeLa Kyoto [2]; [5]) | thermal stability score (HeLa Kyoto [2]; cell cycle stage: mitosis) | melting temperature (HeLa Kyoto [3]; cell cycle stage: G1/S) [°C] | melting temperature (HeLa Kyoto [3]; cell cycle stage: mitosis) [°C] | solubility change mitosis (log2) (HeLa Kyoto [4])
HECTD1 | -0.212 | 0.479 | -0.0167 | 50.4 | 50.4 | -0.16
HINT3 | 0.186 | -1.15 | -1.14 | 55.1 | 54.7 | -0.161
HNRNPU | -0.381 | 7.74 | 17.8 | 47.1 | 49.5 | 0.232
HSP90AB1 | -0.0892 | 0.311 | 0.779 | 51.3 | 51.1 | -0.125
HSPA5 | 0.316 | 3.25 | 3.15 | 55.5 | 56.9 | 0.0735
HUWE1 | -0.226 | 0.946 | 0.312 | 52 | 51.4 | -0.136
KCTD3 | -0.0736 | -2.92 | -4.02 | 57.6 | 56.7 | 0.0231
KIAA1429 | -0.435 | 0.289 | 0.336 | 47.9 | 50.4 | 0.17
KPNA1 | 0.00375 | 1.89 | 3.16 | 49 | 49.7 | -0.102
KPNA6 | 0.0416 | 1.85 | 4.59 | 47.6 | 48.8 | -0.0516
LAMA1 | -0.219 | 5.02 | 10 | 51.7 | 52.9 | 0.051
LAMB2 | 0.034 | 2.43 | 3.75 | 53 | 53.9 | -0.116
LRP6 | 0.027 | -4.02 | -2.07 | 52.7 | 53.1 | 0.112
LTN1 | -0.347 | 0.696 | 1.04 | 50.1 | 48.8 | -0.0806
MAAAAAAAVAGVGRGGGGAEPRQERSRARGWAGVERSEGRRMEPGEELEEEGSPGGREDGFTAEHLAAEAMAADMDPWLVFDARTTPATELDAWLAKYPPSQVTRYGDPGSPNSEPVGWIAVYGQGYSPNSGDVQGLQAAWEALQTSGRPITPGTLRQLAITHHVLSGKWLMHLAPGFKLDHAWAGIARAVVEGQLQVAKVSPRAKEGGRQVICVYTDDFTDRLGVLEADSAIRAAGIKCLLTYKPDVYTYLGIYRANRWHLCPTLYESRFQLGGSARGSRVLDRANNVELT [C11ORF68] | 0.585 | 0.634 | -0.663 | 51.6 | 51.9 | -0.0653
MAAAAASHLNLDALREVLECPICMESFTEEQLRPKLLHCGHTICRQCLEKLLASSINGVRCPFCSKITRITSLTQLTDNLTVLKIIDTAGLSEAVGLLMCRSCGRRLPRQFCRSCGLVLCEPCREADHQPPGHCTLPVKEAAEERRRDFGEKLTRLRELMGELQRRKAALEGVSKDLQARYKAVLQEYGHEERRVQDELARSRKFFTGSLAEVEKSNSQVVEEQSYLLNIAEVQAVSRCDYFLAKIKQADVALLEETADEEEPELTASLPRELTLQDVELLKVGHVGPLQIGQAVKKPRTVNVEDSWAMEATASAASTSVTFREMDMSPEEVVASPRASPAKQRGPEAASNIQQCLFLKKMGAKGSTPGMFNLPVSLYVTSQGEVLVADRGNYRIQVFTRKGFLKEIRRSPSGIDSFVLSFLGADLPNLTPLSVAMNCQGLIGVTDSYDNSLKVYTLDGHCVACHRSQLSKPWGITALPSGQFVVTDVEGGKLWCFTVDRGSGVVKYSCLCSAVRPKFVTCDAEGTVYFTQGLGLNLENRQNEHHLEGGFSIGSVGPDGQLGRQISHFFSENEDFRCIAGMCVDARGDLIVADSSRKEILHFPKGGGYSVLIREGLTCPVGIALTPKGQLLVLDCWDHCIKIYSYHLRRYSTP [TRIM32] | -0.286 | 0.931 | 0.623 | 51.8 | 52.2 | 0.0329
MAAAAAVEAAAPMGALWGLVHDFVVGQQEGPADQVAADVKSGNYTVLQVVEALGSSLENPEPRTRARAIQLLSQVLLHCHTLLLEKEVVHLILFYENRLKDHHLVIPSVLQGLKALSLCVALPPGLAVSVLKAIFQEVHVQSLPQVDRHTVYNIITNFMRTREEELKSLGADFTFGFIQVMDGEKDPRNLLVAFRIVHDLISRDYSLGPFVEELFEVTSCYFPIDFTPPPNDPHGIQREDLILSLRAVLASTPRFAEFLLPLLIEKVDSEVLSAKLDSLQTLNACCAVYGQKELKDFLPSLWASIRREVFQTASERVEAEGLAALHSLTACLSRSVLRADAEDLLDSFLSNILQDCRHHLCEPDMKLVWPSAKLLQAAAGASARACDSVTSNVLPLLLEQFHKHSQSSQRRTILEMLLGFLKLQQKWSYEDKDQRPLNGFKDQLCSLVFMALTDPSTQLQLVGIRTLTVLGAQPDLLSYEDLELAVGHLYRLSFLKEDSQSCRVAALEASGTLAALYPVAFSSHLVPKLAEELRVGESNLTNGDEPTQCSRHLCCLQALSAVSTHPSIVKETLPLLLQHLWQVNRGNMVAQSSDVIAVCQSLRQMAEKCQQDPESCWYFHQTAIPCLLALAVQASMPEKEPSVLRKVLLEDEVLAAMVSVIGTATTHLSPELAAQSVTHIVPLFLDGNVSFLPENSFPSRFQPFQDGSSGQRRLIALLMAFVCSLPRNVEIPQLNQLMRELLELSCCHSCPFSSTAAAKCFAGLLNKHPAGQQLDEFLQLAVDKVEAGLGSGPCRSQAFTLLLWVTKALVLRYHPLSSCLTARLMGLLSDPELGPAAADGFSLLMSDCTDVLTRAGHAEVRIMFRQRFFTDNVPALVQGFHAAPQDVKPNYLKGLSHVLNRLPKPVLLPELPTLLSLLLEALSCPDCVVQLSTLSCLQPLLLEAPQVMSLHVDTLVTKFLNLSSSPSMAVRIAALQCMHALTRLPTPVLLPYKPQVIRALAKPLDDKKRLVRKEAVSARGEWFLLGSPGS [MMS19] | -0.14 | -0.678 | 0.247 | 50.3 | 49.8 | -0.141
MAAAAELSLLEKSLGLSKGNKYSAQGERQIPVLQTNNGPSLTGLTTIAAHLVKQANKEYLLGSTAEEKAIVQQWLEYRVTQVDGHSSKNDIHTLLKDLNSYLEDKVYLTGYNFTLADILLYYGLHRFIVDLTVQEKEKYLNVSRWFCHIQHYPGIRQHLSSVVFIKNRLYTNSH [EEF1E1] | 0.394 | -0.612 | -0.172 | 48.6 | 49.7 | 0.0967
MAAAAGPGAALSPRPCDSDPATPGAQSPKDDNEDNSNDGTQPSKRRRMGSGDSSRSCETSSQDLGFSYYPAENLIEYKWPPDETGEYYMLQEQVSEYLGVTSFKRKYPDLERRDLSHKEKLYLRELNVITETQCTLGLTALRSDEVIDLMIKEYPAKHAEYSVILQEKERQRITDHYKEYSQMQQQNTQKVEASKVPEYIKKAAKKAAEFNSNLNRERMEERRAYFDLQTHVIQVPQGKYKVLPTERTKVSSYPVALIPGQFQEYYKRYSPDELRYLPLNTALYEPPLDPELPALDSDGDSDDGEDGRGDEKRKNKGTSDSSSGNVSEGESPPDSQEDSFQGRQKSKDKAATPRKDGPKRSVLSKSVPGYKPKVIPNAICGICLKGKESNKKGKAESLIHCSQCENSGHPSCLDMTMELVSMIKTYPWQCMECKTCIICGQPHHEEEMMFCDMCDRGYHTFCVGLGAIPSGRWICDCCQRAPPTPRKVGRRGKNSKEG [PHF10] | 0.128 | 1.13 | 2.91 | 49.5 | 49.4 | 0.132
